Drawing on publication PMC7409549, “A time-resolved interaction analysis of Bem1 reconstructs the flow of Cdc42 during polar growth” (Life Science Alliance, 2020), this text covers Kd for 2 molecules.

The target of the experiment is T1, 6xHIS-Nba1_(202-289)-SNAP (S. cerevisiae, UniProt Q08229 202-289).
T1 construct: Nba1, S. cerevisiae, residues 202-289; also called the PxxP site; source: E. coli BL21DE3, purified (HisTrap HP, size-exclusion chromatography); not shown: 6xHIS, N-terminal, kept; SNAP-tag, C-terminal, kept
T1 sequence (looked up): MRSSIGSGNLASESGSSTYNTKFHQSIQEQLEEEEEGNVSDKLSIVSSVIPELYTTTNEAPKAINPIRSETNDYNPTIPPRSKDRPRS
The experiment is described as follows: SPR; Biacore X100; GST-SH3 domains captured on an anti-GST antibody CM5 chip, free GST on the reference cell; 6xHis-Nba1_(202-289)-SNAP as analyte; HBSEP buffer (10 mM Hepes, 150 mM NaCl, 3 mM EDTA, 0.05% Tween 20, pH 7.4); equilibrium KD. The note with it: both partners purified. A general note: SPR reads the build-up and loss of mass on a sensor chip optically.

B1: GST-SH3_(Boi2) (domain or fragment, S. cerevisiae, UniProt P39969 43-107, looked up)
chain: GNFPMYIAINEYFKRMEDELDMKPGDKIKVITDDEEYKDGWYFGRNLRTNEEGLYPVVFTQKITV
notes: SH3 domain of Boi2, S. cerevisiae; source: E. coli BL21DE3, purified (GSTrap, Superdex 200); not shown: GST, N-terminal, kept
For B1, binding was characterised by a dissociation constant (Kd) of 1970 nM.

B2: GST-SH3_(Boi1) (domain or fragment, S. cerevisiae, UniProt P38041 13-77, looked up)
chain: KSFPLYIAVNQYSKRMEDELNMKPGDKIKVITDDGEYNDGWYYGRNLRTKEEGLYPAVFTKRIAI
notes: SH3 domain of Boi1, S. cerevisiae; also called GST fusion to SH3_(Boi1); source: E. coli BL21DE3, purified (GSTrap, Superdex 200) for SPR; coupled to glutathione beads from extract for the pull-down; not shown: GST, N-terminal, kept
In the case of B2, the equilibrium dissociation constant (Kd) was about 740 nM.

The term Kd denotes a measure of binding affinity in units of concentration. Lower therefore signals a tighter complex.
